Biological target: T1, Munc13-1 MUN domain (residues 933–1407, EF, 1453–1531) (rat, UniProt Q62768 933-1407; Q62768 1453-1531)
T1 construct: Munc13-1, rat, residues 933-1407; linker that replaces residues 1408-1452; Munc13-1, rat, residues 1453-1531; Used in native PAGE, crystallization and, as far as told, fluorescence anisotropy; also called the MUN domain; source: E. coli BL21 DE3, pGEX-KG, purified (glutathione Sepharose, thrombin, SEC, ion exchange)
Test: crystal structure; MUN crystals (20% PEG 3350, 0.1 M MES pH 5.8–6.3, 0.2 M Mg(NO3)2, 4 °C) soaked with the LR peptide at 1:4 (MUN:peptide); 2.8 Å
Conditions: both partners purified

binding result: binds
B1: Syb2 linker region peptide (residues 75–93 of Syb2) (peptide)
peptide: SQFETSAAKLKRKYWWKNL
notes: synaptobrevin-2 (Syb2), residues 75-93; also called LR; Syb2 peptide; source: synthetic peptide (Scilight Biotechnology, Beijing)

Reference: paper PMC6325239 (Nature Communications, 2019)
